{"source": "patent US20090202513A1", "about": "“RIBONUCLEASE AND THIAZOLIDINEDIONE COMPOUNDS AND THEIR USE IN METHODS TO TREAT CANCER” (The University of Vermont and State Agriculture College, priority 2008, published 2009)", "molecules": {"B1": {"name": "ranpirnase (protein, UniProt P22069 1-104, looked up)", "Protein P-30": "QDWLTFQKKHITNTRDVDCDNIMSTNLFHCKDKNTFIYSRPEPVKAICKGIIASKNVLTTSEFYLSDCNVTSRPCKYKLKKSTNKFCVTCENQAPVHFVGVGSC", "notes": "RNase extracted from Rana pipiens, the Northern leopard frog; registered trademark name ONCONASE™"}}, "key": {"[1]": {"tested_on": "NCI-H292 lung cancer cell line", "assay": "MTS viability of cells transfected with siFra-1 or scramble control (siC)", "assay_type": "cell-based, human", "conditions": "48 h", "experimental": "Assays were performed on 96-well microtiter plates after plating of 7.7×10^4 cells/well. […] Cell viability was measured by the colorimetric methoxy-tetrazolium salt (MTS) Assay, CellTiter 96 Aqueous One Solution Cell Proliferation Assay (Promega), per the manufacturer's recommendations. MTS is a tetrazolium salt that undergoes a color change caused by its bioreduction of MTS into a water-soluble formazan. The conversion of MTS into the aqueous-soluble formazan is accomplished by dehydrogenase enzymes found in active mitochondria, with reaction occurring only in living cells. The quantity of formazan product measured by the amount of 490-nm light absorbance is directly proportional to the number of living cells in culture. Briefly, 20 μl of MTS reagent was added per well, and plates incubated at 37° C. for 2-3 h. Finally, the absorbance of each well was read at 490 nm and 650 nm. ΔOD from these two wavelengths were reported as the corrected viability. Fold changes were calculated with respect to the control as a measure of cell viability.\nsiFra-1 RNA interference (RNAi) duplexes were constructed from sequence information on mature mRNA extracted from the EST database available through the National Center for Biotechnology Information internet site using the open frame region from the cDNA sequence of exon 2 of the Fra-1 gene. The siRNA pool sequences targeting Fra-1 corresponded to the 107-126, 124-143, 230-249 coding regions relative to the first nucleotide of the start codon. The sequences were BLAST-searched (NCBI database) against EST libraries to ensure the specificity of the siRNA molecule. The siRNA duplexes or a scramble control were transfected into cancer lines using Lipofectamine 2000 (Invitrogen) as recommended by the manufacturer. Cells were incubated with complexes overnight, and the medium was replaced the next day. Cells were allowed to recover for 48 hours before treatments.\nCells were transfected with siFra-1 or scramble control (siC) and left to rest for 48 h before treatment. […] The PPARγ inhibitor GW9662 (2 μM) was added to observe the influence of PPARγ."}, "[2]": {"conditions": "i.v. 2.5 mg/kg, twice a week for 2 weeks; previous studies, personal communication; cited from earlier work"}}, "note": "Entries after “also recorded” stand apart in the source; their conditions may differ."}
{"molecule": "O=C(Nc1ccccc1)c1cc([N+](=O)[O-])ccc1Cl", "note": "[GW9662, reference compound]", "values": [{"measurement": "influence of PPARγ antagonist on the synergistic effect of ranpirnase and rosiglitazone", "setting": "[1]; GW9662 2 μM added to the combination", "result": "did not significantly modify the synergistic effect of ranpirnase and rosiglitazone"}]}
{"molecule": "B1", "values": [{"measurement": "apoptosis induction in vivo", "setting": "[2]", "result": "effective in producing apoptosis"}, {"measurement": "toxicity to the animals", "setting": "[2]", "result": "non-toxic to the animals"}, {"measurement": "effect of Fra-1 knock-down (siFra-1 vs siC) on efficacy / cell killing of the single drug", "setting": "[1]; ranpirnase 0.1, 1 or 10 μg/mL, rosiglitazone 10 or 20 μM", "result": "significantly increased the efficacy of ranpirnase alone at all concentrations; also recorded: increases cell killing by ranpirnase (0.1, 1, or 10 μg/mL) in a concentration-dependent manner"}, {"measurement": "cell viability (MTS)", "setting": "[1]; ranpirnase 0.1, 1 or 10 μg/mL", "result": "reduced viability in a dose-dependent manner"}]}
